Earlier results in PMC10018202.

Columns and labels:
[1] = target: Cys34 (UniProt position 58, QYLQQCPFEDH); test: chemical modification (thiol-disulfide exchange with 2,2'-dithiodipyridine, per the title of the cited reference); the article calls it 'spectroscopic measurements'; settings: not stated (the article notes the pKa changes by 1.5 pH units depending on the ionic strength of the buffer)
[2] = target: Cys283 (UniProt position 283, GYILTCPSNLG)

Substance	pKa [1]	pKa [2]
Serum albumin (HSA) (Homo sapiens)	around 7	–
Creatine kinase (the quoted measurement is most likely on human muscle-type CK; the article's docking target is brain-type CK) (Homo sapiens)	–	around 5.7 and ∼5.6
